# Target: opioid receptors of rat brain homogenate ([3H]-Naloxone binding sites)
# Test: [3H]-Naloxone (1.0 nM) displacement, rat brain homogenate, filtration
% inhibition at 0.1 nM [%],% inhibition at 10 nM [%],% inhibition at 1000 nM [%],Substance
2.76,9.89,91.8,Dynorphin A 1-13-NH2 (peptide)
-0.6,–,–,Human serum albumin (HSA) (from UniProt P02768 25-609)
-3.21,4.87,12.7,Dynorphin A 2-17-NH2 (peptide)
1.66,-0.19,44.1,Dynorphin A 2-13-NH2 (peptide)

# Source: patent US20020039999A1
